The test system of this data set is people with IGT, IFG, or early diabetes. Put plainly: Double-blind pilot study HOE901/1021 (safety and feasibility). The class given is in vivo, human. The source says:
The use of exogenous insulin in an IGT, IFG, or diabetic population might confer several potential metabolic and cardiovascular benefits: • 1. The fact that it is finely titratable and durable (compared to oral antidiabetic agents) may translate into a powerful effect to delay the exposure of target tissues to toxic levels of glycemia. • 2. Insulin-mediated suppression of circulating free fatty acids (FFA) will: • reduce VLDL synthesis and improve lipoprotein patterns (i.e. lower triglycerides, and increase HDL-C); • reduce lipotoxicity at the level of the beta cell and at insulin's target tissues; • reduce obligatory oxidative metabolism in ischemic myocardium. • 3. Exogenous insulin will prevent metabolic decompensation due to stress, that is either mild and frequent (i.e. daily stresses and minor illness or injury), or severe and less common (i.e. major injury, illness, surgery, vascular events). These stress events would normally suppress endogenous insulin responses even when a pharmacologic secretagogue or sensitizer is present; exogenous, injected insulin cannot be suppressed in such a way. • 4. Nitric oxide-mediated vasodilation and endothelial function are abnormal in those with IFG, IGT, or diabetes. Additionally, markers of endothelial inflammation are increased. These abnormalities are all improved by insulin treatment. […]

“(Gly A21) Arg (B31) Arg (B32) human insulin [insulin glargine]”: the “severity of hypoglycemia episodes” value (all episodes) is “mild”. For the same substance, the “subjects who experienced hypoglycemia” value (of 13 insulin glargine subjects, two weeks, calorie-restricted diet, titrated to FPG 80-95 mg/dL) is “Two”.

These data come from US20150065421A1, “BASAL INSULIN THERAPY” (SANOFI, priority 2012, published 2015).
